The source of these data is patent US20250243260A1 (ALPINE IMMUNE SCIENCES, published 2025).

In assay [1] the target is T1, human PD-L1 (human, UniProt Q9NZQ7 19-290).
T1 construct: whole, on cells
Briefly: flow cytometry, SCC152 cells transduced with human PD-L1, anti-human Fc detection. On the procedure:
(§1) Binding affinity to CD28 was determined using primary human T cells which endogenously express CD28. Binding to PD-L1 was determined using SCC152 cells transduced with human PD-L1. Binding to CTLA-4 was measured using Chinese hamster ovary (CHO) cells stably transduced to express human CTLA-4.
(§2) For staining and analysis by flow cytometry, 75,000 human T cells, SCC152/PD-L1 cells, or CHO/CTLA-4 cells were plated in 96-well round-bottom plates. Cells were spun down and resuspended in staining buffer (PBS (phosphate buffered saline), 1% BSA (bovine serum albumin), 1 mM EDTA, and 0.1% sodium azide) for 20 minutes to block non-specific binding. Afterwards, cells were centrifuged, stain buffer aspirated, and then resuspended in 50 μL of a 1:5 serial dilution of each CD80-Fc candidate variant starting at 100 nM ending at 0.8 nM. Primary staining was performed on ice for 60 minutes, before washing cells in […] staining buffer three times. PE-conjugated anti-human Fc (Jackson ImmunoResearch, USA) was diluted 1:250 in 50 μL staining buffer and added to cells and incubated another 30 minutes at 4° C. Cells were washed two times in 150 μL stain buffer and then fixed in 2% formaldehyde/PBS for 5 minutes at room temperature. Samples were analyzed CytoFLEX LX flow cytometer (Beckman Coulter, USA). Median Fluorescence Intensity (MFI) was calculated for each cell type using the CytExpert software from Beckman Coulter.
(§3) Binding assays were carried out to assess the specificity and affinity of multivalent proteins to cell-expressed CTLA-4, CD28, and PD-L1 counter structures.

The target in assay [2] is T1, human PD-L1. Nature of the assay: flow cytometry, SCC152 cells transduced with human PD-L1; MFI against WT CD80 ECD-Fc. On the procedure: as §1, §2, §3

T1 sequence (Q9NZQ7 19-290): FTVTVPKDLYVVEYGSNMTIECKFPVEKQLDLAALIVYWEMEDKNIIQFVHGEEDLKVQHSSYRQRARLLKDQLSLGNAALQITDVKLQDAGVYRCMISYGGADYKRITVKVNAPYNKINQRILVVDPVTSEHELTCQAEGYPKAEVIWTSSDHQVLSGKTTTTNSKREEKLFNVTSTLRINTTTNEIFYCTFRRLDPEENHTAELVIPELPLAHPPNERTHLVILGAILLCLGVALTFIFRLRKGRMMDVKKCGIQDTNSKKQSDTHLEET

B1: CD80-Fc-CD80_339 (CD80_185 V11Y/T28Y/M47L) (Fc fusion)
chain: VIHVTKEVKEYATLSCGHNVSVEELAQYRIYWQKEKKMVLTMMSGDLNIWPEYKNRTIFDITNNLSIVILALRPSDEGTYECVVLKYEKDAFKREHLAEVTLSVKADGSGGGGSPCPPCPAPEFLGGPSVFLFPPKPKDTLMISRTPEVTCVVVDVSQEDPEVQFNWYVDGVEVHNAKTKPREEQFNSTYRVVSVLTVLHQDWLNGKEYKCKVSNKGLPSSIEKTISKAKGQPREPQVYTLPPSQEEMTKNQVSLTCLVKGFYPSDIAVEWESNGQPENNYKTTPPVLDSDGSFFLYSRLTVDKSRWQEGNVFSCSVMHEALHNHYTQKSLSLSLGGGGGSGGGGSGGGGSVIHVTKEVKEYATLSCGYNVSVEELAQYRIYWQKEKKMVLTMMSGDLNIWPEYKNRTIFDITNNLSIVILALRPSDEGTYECVVLKYEKDAFKREHLAEVTLSVKAD
notes: tetravalent
On to B1, for which, in assay [1], the “Anti-Human Fc (MFI) at 0.8 nM” value came to 4180 MFI, the “Anti-Human Fc (MFI) at 4 nM” value is 6180 MFI, the “Anti-Human Fc (MFI) at 20 nM” value was determined as 7120 MFI and the “Anti-Human Fc (MFI) at 100 nM” value was 8090 MFI. The “Fold change vs WT CD80 @20 nM” value in assay [2] came to 10.4 fold.

B2: CD80-Fc-CD80_341 (CD80_197 V11Y/E35D/Y87Q/T101R) (Fc fusion)
chain: VIHVTKEVKEYATLSCGHNVSVEELAQTRIYWQKDKKMVLTMMSGDMNIWPEYKNRTIFDITNNLSIVILALRPSDEGTYECVVLKQEKDAFKREHLAEVRLSVKADGSGGGGSPCPPCPAPEFLGGPSVFLFPPKPKDTLMISRTPEVTCVVVDVSQEDPEVQFNWYVDGVEVHNAKTKPREEQFNSTYRVVSVLTVLHQDWLNGKEYKCKVSNKGLPSSIEKTISKAKGQPREPQVYTLPPSQEEMTKNQVSLTCLVKGFYPSDIAVEWESNGQPENNYKTTPPVLDSDGSFFLYSRLTVDKSRWQEGNVFSCSVMHEALHNHYTQKSLSLSLGGGGGSGGGGSGGGGSVIHVTKEVKEYATLSCGYNVSVEELAQTRIYWQKDKKMVLTMMSGDMNIWPEYKNRTIFDITNNLSIVILALRPSDEGTYECVVLKQEKDAFKREHLAEVRLSVKAD
notes: tetravalent
Take B2: in assay [1], the “Anti-Human Fc (MFI) at 0.8 nM” value was determined as 4750 MFI, the “Anti-Human Fc (MFI) at 4 nM” value was found to be 6410 MFI, the “Anti-Human Fc (MFI) at 20 nM” value amounted to 7100 MFI and the “Anti-Human Fc (MFI) at 100 nM” value is 7810 MFI. For the same molecule, in assay [2], the “Fold change vs WT CD80 @20 nM” value stood at 10.4 fold.
